In patent US11945844B2, “Taste and flavor-modifier proteins” (AMAI PROTEINS LTD., priority 2018, dated 2024):

Tests used:
participants = experiment: Example 1D: blind comparison of combinations at 8.0° BX perception with 3.0° BX sugar addition; assay type: in vivo, human; conditions: 8.0 °BX perception (3.0° BX sugar addition)
Experimental: Further combinations were tested in blind comparison of the various combinations to sugar solution in 6 participants.

trained participants = experiment: Example 1D: blind testing of sweetness potency, aftertaste and lingering in comparison to sugar solution; assay type: in vivo, human; conditions: for sweetness potency at 8 °BX perception, greater than sugar / sweetness threshold, greater than sugar by weight: fold over sugar
Experimental: Based on the optimization above, the sweetness potency, the aftertaste and the lingering effect of DM08 and DM09 were tested as compared with MNEI and additional sweeteners as shown in Table 7. Test method included blind testing in 6 trained participants of each one of the proteins in comparison to sugar solution.

healthy assessors [1] = experiment: Example 1B: double-blind taste assay, sweet taste threshold in soft drink model solution; assay type: in vivo, human; conditions: for sweetness average score: grade 0-10; for sweetness potency simulating 1 °Bx perception: relative to sucrose
Experimental: The sweetness potency of MNEI-based proteins described herein relative to sucrose is typically in the range of 1:700 to 1:16,000. Thus, for the sake of comparison, the MNEI-based proteins and MNEI (as a reference protein) solutions were initially diluted 1:1000 and further diluted as needed. In general, the sweetness threshold of sugar for most people in soft drinks is 0.32%-1.0%. Calculations of MNEI-based proteins and MNEI (as a reference protein concentrations were carried out accordingly. The solutions that were used in this study are detailed in Table 5. The solutions were prepared as follows: for each solution, an amount sweetener (sucrose/MNEI/Designer (modified) Protein; See Table 1 for details) was added as indicated in Table 3 and the solution was completed to 100 g with water (in order to obtain 1% sugar equivalent sweetener). 20 ml of each solution was poured into tasting cup and each sample was marked for blind testing according to Table 5. To evaluate the sweetness threshold for each one of the […] solutions, a double-blind taste assay was performed. The samples tested included MNEI, two MNEI designer proteins (DM08 and DM10), sucrose and mineral water. A series of concentrations were prepared by diluting the stock solution of proteins with mineral water (pH 6.9) shortly before the taste assay (Table 3). Five healthy assessors participated in this session, 2 men and 3 women, 30-50 years old of which 3 were trained tasters. Twenty ml samples were tested randomly, in comparison to sugar solution. Before each assay, assessors were requested to rinse their mouth with water and to eat a neutral-taste cracker until no residual taste remained. The test solution was held in the mouth for at least 10 seconds. The assessors then graded the sample according to their response between 0-10; 0-no sweet perception, 10-very sweet. The sweetness detection threshold was defined as the lowest concentration at which the taster recognized the sample as sweet. Sweetness potencies are reported relative to sucrose.

healthy assessors [2] = experiment: Example 1C: double-blind taste assay, sweet taste threshold in solution; assay type: in vivo, human; conditions: for sweetness potency compatible with / simulating 1 °Bx sugar solution: relative to sucrose
Experimental: The solutions that were used in this study are detailed in Table 4. The solutions were prepared as follows: for each solution, an amount sweetener (sucrose/MNEI/Designer Protein; See Table 1 for details) was added as indicated in Table 6 and the solution was completed to 100 g with water (in order to obtain 1% sugar equivalent sweetener). 20 ml of each solution was poured into tasting cup and each sample was marked for blind testing according to Table 6. To evaluate the sweetness threshold for each one of the […] solutions, a double-blind taste assay was performed. The samples tested included MNEI, […] ([…]), sucrose and mineral water. A series of concentrations were prepared by diluting the stock solution of proteins with mineral water (pH 6.9) shortly before the taste assay (Table 6). Six healthy assessors participated in this session, 5 men and 1 woman, 30-75 years old of which half were trained tasters The sweetness detection threshold was defined as the lowest concentration at which the taster recognized the sample as sweet. Sweetness potencies are reported relative to sucrose. Twenty ml samples were tested randomly, in comparison to sugar solution. Before each assay, assessors were requested to rinse their mouth with water and to eat a neutral-taste cracker until no residual taste remained. The test solution was held in the mouth for at least 10 seconds. The assessors then graded the sample according to their response between 0-10; 0-no sweet perception, 10-very sweet. The sweetness detection threshold was defined as the lowest concentration at which the taster recognized the sample as sweet. Sweetness potencies are reported relative to sucrose.

[3] = single substitution in MNEI, Zheng et al; cited from earlier work
[4] = single substitution in MNEI, Zheng et al; cited from earlier work; remark: listed apart in the source
[5] = Sweetness potency relative to MNEI (Table 10); assay type: in vivo; conditions: MNEI = 1.0
[6] = Structural thermal stability (Tm); assay type: physicochemical
Description: The term “structural thermal stability” or “thermal stability” as used herein refers to the ability of the modified protein to retain its 3D structure at temperatures above that of the reference protein. The 3D structural stability of a protein can be measured by any method known in the art, such as Circular Dichroism (CD), or thermal shift assays such as Differential Scanning Fluorimetry (DSF) or Differential Scanning calorimetry (DSC). The 3D structure of a protein may have an effect on the function of the protein.

Shelf life stability = assay type: physicochemical; conditions: at 4° C.
Experimental: In some embodiments the modified protein has improved shelf life relative to the reference protein. Improved shelf life refers to no sensed change in the sweetness (function) or physical deterioration of a product comprising the composition (e.g. color change, phase separation etc.) after exposure of the product to any temperature up to 150° C., at times, to any temperature between 4° C. to 150°, or to 100°.

[7] = dilution factor 1:500, grade 0-10
[8] = dilution factor 1:1,000, grade 0-10
[9] = dilution factor 1:2,000, grade 0-10

OC[C@H]1O[C@@](CO)(O[C@H]2O[C@H](CO)[C@@H](O)[C@H](O)[C@H]2O)[C@@H](O)[C@@H]1O [Sucrose, reference compound]
After Taste (participants): No
Late onset (participants): No
Lingering (participants): No
Estimated threshold concentration (trained participants; ratio relative to sucrose, 6 trained participants): 1
Additional After Taste & Notes (trained participants; single sweetener (Table 7)): No
Late onset (trained participants; single sweetener (Table 7)): No
Lingering After Taste (trained participants; single sweetener (Table 7)): No
sweetness average score (healthy assessors [1]; 0.5% sucrose solution, 5 assessors): 0.63±0.6
sweetness average score (healthy assessors [1]; 1% sucrose solution, 5 assessors): 1.25±0.9
sweetness average score (healthy assessors [2]; 0.5% sucrose solution, grade 0-10, 6 assessors): 1.9±0.9
sweetness average score (healthy assessors [2]; 1% sucrose solution, grade 0-10, 6 assessors): 3.8±1.9

B1: E2N: MNEI with amino acid substitution E2N, CPD model; also reported by Zheng et al (protein)
chain: GNWEIIDIGPFTQNLGKFAVDEENKIGQYGRLTFNKVIRPCMKKTIYENEGFREIKGYEYQLYVYASDKLFRADISEDYKTRGRKLLRFNGPVPPP
modifications: Monelin MNEI
notes: MNEI with amino acid substitution E2N, CPD model; also reported by Zheng et al
improved sweetness [3]: 3 fold
stability [4]: slight reduced stability

B2: DM03: modified MNEI protein, SEQ ID NO: 15, E2N/I8T/N14K/E23A/Q28K/R31T/N35T/C41T/Y65K/S67N/R84L (protein)
chain: GNWEIIDTGPFTQKLGKFAVDEANKIGKYGTLTFTKVIRPTMKKTIYENEGFREIKGYEYQLYVKANDKLFRADISEDYKTRGLKLLRFNGPVPPP
modifications: DM3
Sweetness Potency relative to MNEI [5]: Not sweet at all
Tm (° C.) Structural thermal stability [6]: 81.5 °C

B3: DM10: modified MNEI protein, SEQ ID NO: 18, Q28K/R31T/N35T/S67N (protein)
chain: GEWEIIDIGPFTQNLGKFAVDEENKIGKYGTLTFTKVIRPCMKKTIYENEGFREIKGYEYQLYVYANDKLFRADISEDYKTRGRKLLRFNGPVPPP
modifications: DM10
Sweetness Potency relative to MNEI [5]: 0.5
Tm (° C.) Structural thermal stability [6]: 71 °C
sweetness potency simulating 1 °Bx perception (healthy assessors [1]): about 1,000

B4: DM11: modified MNEI protein, SEQ ID NO: 19, I8T/N14K/C41T/R84L (protein)
chain: GEWEIIDTGPFTQKLGKFAVDEENKIGQYGRLTFNKVIRPTMKKTIYENEGFREIKGYEYQLYVYASDKLFRADISEDYKTRGLKLLRFNGPVPPP
modifications: DM11
Sweetness Potency relative to MNEI [5]: 0.2
Tm (° C.) Structural thermal stability [6]: 69 °C
sweetness average score (healthy assessors [2]; [7]): 0.0±0.0
sweetness average score (healthy assessors [2]; [8]): 0.3±0.8
sweetness average score (healthy assessors [2]; [9]): 0.4±0.9
sweetness potency compatible with / simulating 1 °Bx sugar solution (healthy assessors [2]): below 500

B5: DM08: modified MNEI protein, SEQ ID NO:16, E2N/E23V/Y65K (protein)
chain: GNWEIIDIGPFTQNLGKFAVDEVNKIGQYGRLTFNKVIRPCMKKTIYENEGFREIKGYEYQLYVKASDKLFRADISEDYKTRGRKLLRFNGPVPPP
modifications: DM8
Sweetness Potency relative to MNEI [5]: 6.0
Tm (° C.) Structural thermal stability [6]: 81 °C
sweetness potency at 8 °BX perception, greater than sugar (trained participants): 3,500
sweetness threshold, greater than sugar by weight (trained participants): 10,000
Additional After Taste & Notes (trained participants; single sweetener (Table 7)): Low bitterness
Lingering After Taste (trained participants; single sweetener (Table 7)): Sweet lingering
sweetness potency simulating 1 °Bx perception (healthy assessors [1]): about 10,000
shelf life stability (Shelf life stability): At least 6 months

B6: MNEI: single chain Monellin (MNEI) reference protein, SEQ ID NO:5, 96 amino acids (protein)
chain: GEWEIIDIGPFTQNLGKFAVDEENKIGQYGRLTFNKVIRPCMKKTIYENEGFREIKGYEYQLYVYASDKLFRADISEDYKTRGRKLLRFNGPVPPP
modifications: Monelin MNEI
Sweetness Potency relative to MNEI [5]: 1.0
Tm (° C.) Structural thermal stability [6]: 69 °C
Lingering After Taste (trained participants; single sweetener (Table 7)): Sweet lingering
sweetness average score (healthy assessors [1]; dilution factor 1:1,000): 2.2±1.0
sweetness average score (healthy assessors [1]; dilution factor 1:2,000): 0.98±0.4
sweetness average score (healthy assessors [1]; dilution factor 1:4,000): 0.68±0.2
sweetness potency simulating 1 °Bx perception (healthy assessors [1]): about 2,000
shelf life stability (Shelf life stability): At least 12 months
sweetness average score (healthy assessors [2]; [7]): 4.7±3.2
sweetness average score (healthy assessors [2]; [8]): 2.5±1.4
sweetness average score (healthy assessors [2]; [9]): 1.0±0.7
sweetness potency compatible with / simulating 1 °Bx sugar solution (healthy assessors [2]): about 1,000

B7: DM12: modified MNEI protein, SEQ ID NO: 20, I8T/C41T as printed in Table 4 (protein)
chain: GEWEIIDTGPFTQNLGKFAVDEENKIGQYGRLTFNKVIRPTMKKTIYENEGFREIKGYEYQLYVYASDKLFRADISEDYKTRGLKLLRFNGPVPPP
modifications: DM12
Sweetness Potency relative to MNEI [5]: 0.5
Tm (° C.) Structural thermal stability [6]: 65 °C
sweetness average score (healthy assessors [2]; all dilution factors (1:500, 1:1,000, 1:2,000), no noticeable dose response): ~1.0

B8: DM09: modified MNEI protein, SEQ ID NO:17, E2N/E23A/Y65R (protein)
chain: GNWEIIDIGPFTQNLGKFAVDEANKIGQYGRLTFNKVIRPCMKKTIYENEGFREIKGYEYQLYVRASDKLFRADISEDYKTRGRKLLRFNGPVPPP
modifications: DM9
Sweetness Potency relative to MNEI [5]: 7.5
Tm (° C.) Structural thermal stability [6]: 81 °C
melting temperature compared with MNEI ([6]; summary of Table 10): at least equal or improved
sweetness potency at 8 °BX perception, greater than sugar (trained participants): 4,000
sweetness threshold, greater than sugar by weight (trained participants): 15,000
shelf life stability (Shelf life stability): At least 6 months
